± gives the standard deviation of the averaged measurements.
System: ATP
Assay: switch fluorescence ratio, 500 uM ATP over buffer (Cy3 cluster intensity, sum of 5 cycles each) (fold (ratio)); higher = stronger signal-on switching upon ATP binding; sequences stand for … in TCGTCGGCAGCGTCAGATGTGTATAAGAGACAGTTTTTTTTTTTTTTTTTTTTTTTTT…TC
Details: aptamer strand: ATP DNA aptamer (quencher-CACCTGGGGGAGTATTGCGGAGGAAGG + anchor), 100 nM annealed; ATP concentration: 500 uM
Procedure, shortened: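 Between each of five buffer/ATP cycles, the flow-cell was stripped with NaOH and re-annealed. Each cycle imaged Cy3-labelled switching-strand clusters, annealed to 100 nM quencher-labelled ATP aptamer on a modified Illumina MiSeq flow-cell, first in selection buffer and then after 15 min with 500 uM ATP at 22 °C. The fluorescence ratio is summed target-cycle over summed buffer-cycle Cy3 intensity per cluster, averaged per switch-domain sequence, with clusters outside 100-1000 RFU excluded.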
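Further: ATP exposure 15 min at 22 °C before imaging.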

Row | Sequence | switch fluorescence ratio
1 | CAGTAAGTCT | 1.05 ± 0.076
2 | CATGGGGGGA | 0.994 ± 0.018
3 | CAGGCTGACC | 0.974 ± 0.025
4 | TACGGCGGAA | 1.02 ± 0.047
5 | ATGAGGTGCG | 0.972 ± 0.035
6 | CTGACGGATT | 1.2 ± 0.054
7 | CGCCCGGTAA | 1.13 ± 0.043
8 | AAATCTGTCA | 1.03 ± 0.02
9 | ATTGTTAAGC | 1.02 ± 0.075
10 | TTATTTGGTC | 1 ± 0.056
11 | TAAAGGGGAA | 1.01 ± 0.047
12 | TTGGGTGGGG | 1 ± 0.049
13 | AATGTGTGCT | 0.949 ± 0.0099
14 | GTGCTGGTGG | 0.9839 ± 0.0043
15 | GGGATAAGGA | 0.99 ± 0.044
16 | GTTATGGTTT | 0.986 ± 0.031
17 | TGTTTAAAAA | 0.987 ± 0.025
18 | AGAGGGCTTG | 0.997 ± 0.018
19 | CAATCGACCT | 1.27 ± 0.046
20 | AATTGGTGGG | 0.9916 ± 0.0084
21 | CGGGGTTGTG | 0.966 ± 0.014
22 | CCTAGTTTTT | 0.997 ± 0.023
23 | TAATGAGGAA | 1.004 ± 0.01
24 | GGTAACAGGG | 1.02 ± 0.032
25 | ATAATTATGT | 1 ± 0.018

Row | Sequence | switch fluorescence ratio
26 | CCTTGAAGGT | 0.984 ± 0.0091
27 | TCGGTTGAGA | 1.01 ± 0.021
28 | TAGTGACTAG | 1.05 ± 0.021
29 | TGTTTAAACG | 1.025 ± 0.005
30 | GTAATGTCTT | 0.9797 ± 0.0084
31 | GAAGAGTCGT | 0.992 ± 0.064
32 | CAAGCTAGCG | 1.04 ± 0.016
33 | GGCTTGGAAT | 0.989 ± 0.011
34 | GCGGGGGTCC | 1.17 ± 0.31
35 | CGATGGCGAC | 1.016 ± 0.0051
36 | GACCTAGTGT | 1.03 ± 0.019
37 | AAATTTATAT | 1.02 ± 0.015
38 | GCATAAGGTT | 0.993 ± 0.031
39 | AGGAAGGCA | 0.975 ± 0.05
40 | AAAATGGTTT | 0.994 ± 0.037
41 | AATTGGGATT | 0.998 ± 0.026
42 | GGTTGAGGGG | 0.985 ± 0.034
43 | ATTTAATTTT | 1.02 ± 0.019
44 | CGTTGTGGGA | 1.01 ± 0.038
45 | AAACTGGGAT | 1.01 ± 0.033
46 | GGGGGGGGTA | 1 ± 0.044
47 | TGCAGGGTTG | 0.99591 ± 0.00085
48 | GCGGTGGATG | 1.03 ± 0.012
49 | AGGACAGCAT | 1.07 ± 0.023
50 | GATCATTGAC | 1.066 ± 0.0057

Row | Sequence | switch fluorescence ratio
51 | GGCGCAATTT | 2.4 ± 0.27
52 | ACCAATGGTC | 1.02 ± 0.041
53 | AGGTCGAGGG | 0.997 ± 0.026
54 | TTTATAGACT | 1.02 ± 0.0016
55 | GTAAGAATGG | 1.03 ± 0.03
56 | CGTAATGGCA | 1.01 ± 0.017
57 | GTTTGGGTCT | 0.997 ± 0.013
58 | GCGGAGCGTA | 1.06 ± 0.13
59 | AAACTTCGGG | 1 ± 0.026
60 | TTATGTCGAA | 0.98 ± 0.017
61 | TGCAAGTTTG | 1 ± 0.017
62 | ACGCGACGG | 1.13 ± 0.018
63 | GACCTGTTTG | 0.987 ± 0.017
64 | TCATTTGGGG | 0.975 ± 0.024
65 | TTTAGGCGTT | 1.01 ± 0.057
66 | TCAAGTTTTT | 1.012 ± 0.0044
67 | ATCCTCGGGA | 1.01 ± 0.034
68 | GGAAAAAAGT | 1.02 ± 0.047
69 | CAGCACGATA | 1.1615 ± 0.00014
70 | AATGGTATTC | 0.998 ± 0.025
71 | GATGTGCAAA | 1.01 ± 0.022
72 | TGATTTTGAG | 1.01 ± 0.018
73 | TAATACGAGT | 1.02 ± 0.014
74 | GTTCTTTGTG | 1 ± 0.012
75 | ATTTTGAGGC | 1.02 ± 0.035

Row | Sequence | switch fluorescence ratio
76 | CTCTATCAAT | 1.254 ± 0.0064
77 | GGGGATGAGC | 1.04 ± 0.037
78 | TTGTTAATGA | 0.979 ± 0.046
79 | TTGCGTATGA | 1.04 ± 0.063
80 | GGTTTTGTGT | 0.962 ± 0.038
81 | AAGCAGAGGC | 1.004 ± 0.0031
82 | TAGACCGTTC | 1.108 ± 0.0068
83 | ATGGAAAATT | 1.04 ± 0.02
84 | GGCAGAAATG | 0.994 ± 0.011
85 | TGTTTTAGT | 0.992 ± 0.024
86 | TTAATATGGA | 0.999 ± 0.012
87 | GCGACGGGAA | 1.34 ± 0.09
88 | CTAGTTTGGA | 1 ± 0.011
89 | GATATTAGGA | 1 ± 0.088
90 | CAAATGGTGG | 1.02 ± 0.0022
91 | CTATGGATAC | 1.61 ± 0.18
92 | TCAGGTTAGG | 1.008 ± 0.0065
93 | AGCTGAAGCC | 1.03 ± 0.028
94 | CGGGTTCAGA | 1.051 ± 0.0054
95 | ATATGCGATG | 0.97 ± 0.051
96 | TCAAGTGGGG | 1.01 ± 0.053
97 | GGCCTTGTGT | 1.0357 ± 0.00094
98 | CCTCAAAGCT | 1.794 ± 0.0088
99 | TAGCATTTTT | 1.07 ± 0.14
100 | GGGGACGAAT | 1.002 ± 0.0025

From the supplement of paper PMC10126150
